Earlier results on two substances are cited in PMC6389997.

Details in all cases: cited from earlier work
For data set [1], the target named is sigma32 (Escherichia coli) (UniProt P0AGB3).
In data set [2] the target is Im7 (intermediate-like) (Escherichia coli) (UniProt Q03708).
The target of data set [3] is Im7 (folded) (Escherichia coli) (UniProt Q03708).
Data set [4] deals with Im7 (unfolded-like) (Escherichia coli) (UniProt Q03708).
Chain of Im7 (unfolded-like) (Escherichia coli) (Q03708 whole entry): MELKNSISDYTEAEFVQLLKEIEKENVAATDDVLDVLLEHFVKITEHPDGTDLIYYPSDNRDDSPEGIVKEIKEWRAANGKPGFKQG

Chain of Spy (P77754 24-161): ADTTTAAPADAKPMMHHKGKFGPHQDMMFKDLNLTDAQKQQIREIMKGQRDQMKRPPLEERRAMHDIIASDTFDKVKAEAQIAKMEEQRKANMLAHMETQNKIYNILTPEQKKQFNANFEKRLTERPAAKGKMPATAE
Chain of sigma32 (Escherichia coli) (P0AGB3 whole entry): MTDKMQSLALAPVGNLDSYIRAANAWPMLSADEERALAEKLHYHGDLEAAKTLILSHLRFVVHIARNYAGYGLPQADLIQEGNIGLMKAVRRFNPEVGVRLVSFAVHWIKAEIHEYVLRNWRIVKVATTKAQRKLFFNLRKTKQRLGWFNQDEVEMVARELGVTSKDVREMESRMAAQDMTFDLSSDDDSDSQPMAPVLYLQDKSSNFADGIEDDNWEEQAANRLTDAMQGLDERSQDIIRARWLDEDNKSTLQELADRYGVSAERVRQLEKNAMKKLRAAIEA
Chain of Im7 (folded) (Escherichia coli) (Q03708 whole entry): as the sequence (Q03708 whole entry) above
Chain of Im7 (intermediate-like) (Escherichia coli) (Q03708 whole entry): as above
Chain of DnaK (P0A6Y8 2-638): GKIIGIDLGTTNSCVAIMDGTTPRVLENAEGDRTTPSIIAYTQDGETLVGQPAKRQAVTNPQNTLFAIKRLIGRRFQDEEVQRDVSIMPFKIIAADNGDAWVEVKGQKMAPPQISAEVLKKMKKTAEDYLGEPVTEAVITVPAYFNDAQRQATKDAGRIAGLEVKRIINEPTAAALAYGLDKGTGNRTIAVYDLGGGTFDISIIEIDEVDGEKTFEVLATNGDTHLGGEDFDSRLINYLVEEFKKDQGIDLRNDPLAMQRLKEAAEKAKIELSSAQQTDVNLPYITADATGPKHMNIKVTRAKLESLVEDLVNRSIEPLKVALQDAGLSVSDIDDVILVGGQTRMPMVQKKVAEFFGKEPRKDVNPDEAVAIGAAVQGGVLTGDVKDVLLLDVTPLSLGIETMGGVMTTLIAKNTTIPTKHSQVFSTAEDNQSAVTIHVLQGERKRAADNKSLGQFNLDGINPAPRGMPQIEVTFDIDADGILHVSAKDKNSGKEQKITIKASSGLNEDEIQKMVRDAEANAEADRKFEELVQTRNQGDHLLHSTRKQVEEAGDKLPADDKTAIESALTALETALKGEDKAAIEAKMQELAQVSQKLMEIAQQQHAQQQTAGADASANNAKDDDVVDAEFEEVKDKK

Consider DnaK (from UniProt P0A6Y8), for which, in data set [1], the Kd (as a rule, the concentration at which binding is half-saturated) was 1.4 µM.
For the substance Spy (from UniProt P77754), the Kd in data set [2] is 3.5 µM; in data set [3] it was 20.5 µM; in data set [4], 10.4 µM.
